± gives the uncertainty stated by the source.
B1: E3 ubiquitin-protein ligase NEDD4, residues 836 to 881; numbered along this chain, P46934 (parent)
chain: EIEQGFLPKGWEVRHAPNGRPFFIDHNTKTTTWEDPRLKIPAHLRG
B2: POU domain, class 2, transcription factor 1, residues 285 to 354; numbered along this chain, P14859 (parent)
chain: LEELEQFAKTFKQRRIKLGFTQGDVGLAMGKLYGNDFSQTTISRFEALNLSFKNMCKLKPLLEKWLNDAE

Variants of: B1
Test: abundance fitness (aPCA) (normalised: wild type 0, dead -1); higher = more abundant; growth selection in yeast, the domain comes from the species named
Details: Homo sapiens

First: H43L
Second: H43W
The abundance fitness of the first is higher: -0.107 ± 0.038 for the first, -0.311 ± 0.075 for the second.

H43R and H43M are within error of each other in abundance fitness: -0.195 ± 0.037 for the first, -0.251 ± 0.059 for the second.

First: H43S
Second: H43I
The abundance fitness of the first is higher: 0.019 ± 0.032 for the first, -0.156 ± 0.04 for the second.

Compared with H43Y, H43F is lower in abundance fitness: -0.041 ± 0.1 for the first, -0.232 ± 0.055 for the second.

Compared with H43G, H43E is higher in abundance fitness: -0.078 ± 0.046 for the first, 0.105 ± 0.058 for the second.

H43V and H43Q are within error of each other in abundance fitness: -0.052 ± 0.047 for the first, 0.007 ± 0.048 for the second.

G46A and G46S are within error of each other in abundance fitness: -0.249 ± 0.26 for the first, -0.002 ± 0.094 for the second.

For G46D, the abundance fitness was -0.088 ± 0.16.

Variants of: B2
Test: as above
Details: Homo sapiens

First: LEELFQFAKTFKQRRIKLGFTQGDVGLAMGKLYGNDFSQTTISRFEALNLSFKNMCKLKPLLEKWLNDAE
Second: LEELAQFAKTFKQRRIKLGFTQGDVGLAMGKLYGNDFSQTTISRFEALNLSFKNMCKLKPLLEKWLNDAE
The abundance fitness of the first is lower: -0.13 ± 0.046 for the first, -0.022 ± 0.026 for the second.

First: LEELCQFAKTFKQRRIKLGFTQGDVGLAMGKLYGNDFSQTTISRFEALNLSFKNMCKLKPLLEKWLNDAE
Second: LEELGQFAKTFKQRRIKLGFTQGDVGLAMGKLYGNDFSQTTISRFEALNLSFKNMCKLKPLLEKWLNDAE
The abundance fitness of the first is lower: -0.114 ± 0.037 for the first, -0.019 ± 0.021 for the second.

Compared with LEELDQFAKTFKQRRIKLGFTQGDVGLAMGKLYGNDFSQTTISRFEALNLSFKNMCKLKPLLEKWLNDAE, LEPLEQFAKTFKQRRIKLGFTQGDVGLAMGKLYGNDFSQTTISRFEALNLSFKNMCKLKPLLEKWLNDAE is lower in abundance fitness: -0.072 ± 0.05 for the first, -0.569 ± 0.043 for the second.

LEALEQFAKTFKQRRIKLGFTQGDVGLAMGKLYGNDFSQTTISRFEALNLSFKNMCKLKPLLEKWLNDAE and LEILEQFAKTFKQRRIKLGFTQGDVGLAMGKLYGNDFSQTTISRFEALNLSFKNMCKLKPLLEKWLNDAE are within error of each other in abundance fitness: -0.143 ± 0.05 for the first, -0.117 ± 0.063 for the second.

LERLEQFAKTFKQRRIKLGFTQGDVGLAMGKLYGNDFSQTTISRFEALNLSFKNMCKLKPLLEKWLNDAE and LEYLEQFAKTFKQRRIKLGFTQGDVGLAMGKLYGNDFSQTTISRFEALNLSFKNMCKLKPLLEKWLNDAE are within error of each other in abundance fitness: -0.207 ± 0.036 for the first, -0.186 ± 0.047 for the second.

Going from LEQLEQFAKTFKQRRIKLGFTQGDVGLAMGKLYGNDFSQTTISRFEALNLSFKNMCKLKPLLEKWLNDAE to LEGLEQFAKTFKQRRIKLGFTQGDVGLAMGKLYGNDFSQTTISRFEALNLSFKNMCKLKPLLEKWLNDAE, the abundance fitness falls from -0.078 ± 0.034 to -0.201 ± 0.063.

LETLEQFAKTFKQRRIKLGFTQGDVGLAMGKLYGNDFSQTTISRFEALNLSFKNMCKLKPLLEKWLNDAE and LEVLEQFAKTFKQRRIKLGFTQGDVGLAMGKLYGNDFSQTTISRFEALNLSFKNMCKLKPLLEKWLNDAE are within error of each other in abundance fitness: -0.146 ± 0.031 for the first, -0.118 ± 0.033 for the second.

First: LEWLEQFAKTFKQRRIKLGFTQGDVGLAMGKLYGNDFSQTTISRFEALNLSFKNMCKLKPLLEKWLNDAE
Second: LENLEQFAKTFKQRRIKLGFTQGDVGLAMGKLYGNDFSQTTISRFEALNLSFKNMCKLKPLLEKWLNDAE
The abundance fitness of the first is lower: -0.305 ± 0.042 for the first, -0.07 ± 0.078 for the second.

LEKLEQFAKTFKQRRIKLGFTQGDVGLAMGKLYGNDFSQTTISRFEALNLSFKNMCKLKPLLEKWLNDAE and LESLEQFAKTFKQRRIKLGFTQGDVGLAMGKLYGNDFSQTTISRFEALNLSFKNMCKLKPLLEKWLNDAE are within error of each other in abundance fitness: -0.137 ± 0.035 for the first, -0.105 ± 0.024 for the second.

LECLEQFAKTFKQRRIKLGFTQGDVGLAMGKLYGNDFSQTTISRFEALNLSFKNMCKLKPLLEKWLNDAE and LEFLEQFAKTFKQRRIKLGFTQGDVGLAMGKLYGNDFSQTTISRFEALNLSFKNMCKLKPLLEKWLNDAE are within error of each other in abundance fitness: -0.202 ± 0.046 for the first, -0.159 ± 0.039 for the second.

LEMLEQFAKTFKQRRIKLGFTQGDVGLAMGKLYGNDFSQTTISRFEALNLSFKNMCKLKPLLEKWLNDAE and LEHLEQFAKTFKQRRIKLGFTQGDVGLAMGKLYGNDFSQTTISRFEALNLSFKNMCKLKPLLEKWLNDAE are within error of each other in abundance fitness: -0.089 ± 0.027 for the first, -0.036 ± 0.044 for the second.

First: LHELEQFAKTFKQRRIKLGFTQGDVGLAMGKLYGNDFSQTTISRFEALNLSFKNMCKLKPLLEKWLNDAE
Second: LSELEQFAKTFKQRRIKLGFTQGDVGLAMGKLYGNDFSQTTISRFEALNLSFKNMCKLKPLLEKWLNDAE
The abundance fitness of the first is lower: -0.175 ± 0.057 for the first, -0.057 ± 0.031 for the second.

LGELEQFAKTFKQRRIKLGFTQGDVGLAMGKLYGNDFSQTTISRFEALNLSFKNMCKLKPLLEKWLNDAE and LPELEQFAKTFKQRRIKLGFTQGDVGLAMGKLYGNDFSQTTISRFEALNLSFKNMCKLKPLLEKWLNDAE are within error of each other in abundance fitness: -0.303 ± 0.1 for the first, -0.178 ± 0.039 for the second.

LDELEQFAKTFKQRRIKLGFTQGDVGLAMGKLYGNDFSQTTISRFEALNLSFKNMCKLKPLLEKWLNDAE and LTELEQFAKTFKQRRIKLGFTQGDVGLAMGKLYGNDFSQTTISRFEALNLSFKNMCKLKPLLEKWLNDAE are within error of each other in abundance fitness: -0.013 ± 0.17 for the first, -0.158 ± 0.032 for the second.

LCELEQFAKTFKQRRIKLGFTQGDVGLAMGKLYGNDFSQTTISRFEALNLSFKNMCKLKPLLEKWLNDAE and LVELEQFAKTFKQRRIKLGFTQGDVGLAMGKLYGNDFSQTTISRFEALNLSFKNMCKLKPLLEKWLNDAE are within error of each other in abundance fitness: -0.152 ± 0.051 for the first, -0.067 ± 0.045 for the second.

Compared with LWELEQFAKTFKQRRIKLGFTQGDVGLAMGKLYGNDFSQTTISRFEALNLSFKNMCKLKPLLEKWLNDAE, LKELEQFAKTFKQRRIKLGFTQGDVGLAMGKLYGNDFSQTTISRFEALNLSFKNMCKLKPLLEKWLNDAE is higher in abundance fitness: -0.043 ± 0.029 for the first, 0.053 ± 0.037 for the second.

LRELEQFAKTFKQRRIKLGFTQGDVGLAMGKLYGNDFSQTTISRFEALNLSFKNMCKLKPLLEKWLNDAE and LIELEQFAKTFKQRRIKLGFTQGDVGLAMGKLYGNDFSQTTISRFEALNLSFKNMCKLKPLLEKWLNDAE are within error of each other in abundance fitness: -0.013 ± 0.03 for the first, -0.029 ± 0.06 for the second.

First: LNELEQFAKTFKQRRIKLGFTQGDVGLAMGKLYGNDFSQTTISRFEALNLSFKNMCKLKPLLEKWLNDAE
Second: LQELEQFAKTFKQRRIKLGFTQGDVGLAMGKLYGNDFSQTTISRFEALNLSFKNMCKLKPLLEKWLNDAE
The abundance fitness of the first is higher: 0.109 ± 0.072 for the first, -0.043 ± 0.037 for the second.

LFELEQFAKTFKQRRIKLGFTQGDVGLAMGKLYGNDFSQTTISRFEALNLSFKNMCKLKPLLEKWLNDAE and LMELEQFAKTFKQRRIKLGFTQGDVGLAMGKLYGNDFSQTTISRFEALNLSFKNMCKLKPLLEKWLNDAE are within error of each other in abundance fitness: -0.009 ± 0.036 for the first, -0.012 ± 0.026 for the second.

LYELEQFAKTFKQRRIKLGFTQGDVGLAMGKLYGNDFSQTTISRFEALNLSFKNMCKLKPLLEKWLNDAE and LEEMEQFAKTFKQRRIKLGFTQGDVGLAMGKLYGNDFSQTTISRFEALNLSFKNMCKLKPLLEKWLNDAE are within error of each other in abundance fitness: -0.046 ± 0.057 for the first, -0.022 ± 0.23 for the second.

Going from LEEVEQFAKTFKQRRIKLGFTQGDVGLAMGKLYGNDFSQTTISRFEALNLSFKNMCKLKPLLEKWLNDAE to LEEFEQFAKTFKQRRIKLGFTQGDVGLAMGKLYGNDFSQTTISRFEALNLSFKNMCKLKPLLEKWLNDAE, the abundance fitness falls from -0.145 ± 0.14 to -0.483 ± 0.16.

LEESEQFAKTFKQRRIKLGFTQGDVGLAMGKLYGNDFSQTTISRFEALNLSFKNMCKLKPLLEKWLNDAE and KEELEQFAKTFKQRRIKLGFTQGDVGLAMGKLYGNDFSQTTISRFEALNLSFKNMCKLKPLLEKWLNDAE are within error of each other in abundance fitness: -0.263 ± 0.21 for the first, 0.001 ± 0.11 for the second.

SEELEQFAKTFKQRRIKLGFTQGDVGLAMGKLYGNDFSQTTISRFEALNLSFKNMCKLKPLLEKWLNDAE and YEELEQFAKTFKQRRIKLGFTQGDVGLAMGKLYGNDFSQTTISRFEALNLSFKNMCKLKPLLEKWLNDAE are within error of each other in abundance fitness: -0.055 ± 0.28 for the first, 0.13 ± 0.15 for the second.

FEELEQFAKTFKQRRIKLGFTQGDVGLAMGKLYGNDFSQTTISRFEALNLSFKNMCKLKPLLEKWLNDAE and IEELEQFAKTFKQRRIKLGFTQGDVGLAMGKLYGNDFSQTTISRFEALNLSFKNMCKLKPLLEKWLNDAE are within error of each other in abundance fitness: 0.007 ± 0.044 for the first, -0.003 ± 0.17 for the second.

MEELEQFAKTFKQRRIKLGFTQGDVGLAMGKLYGNDFSQTTISRFEALNLSFKNMCKLKPLLEKWLNDAE and NEELEQFAKTFKQRRIKLGFTQGDVGLAMGKLYGNDFSQTTISRFEALNLSFKNMCKLKPLLEKWLNDAE are within error of each other in abundance fitness: 0.073 ± 0.06 for the first, -0.074 ± 0.096 for the second.

Compared with REELEQFAKTFKQRRIKLGFTQGDVGLAMGKLYGNDFSQTTISRFEALNLSFKNMCKLKPLLEKWLNDAE, DEELEQFAKTFKQRRIKLGFTQGDVGLAMGKLYGNDFSQTTISRFEALNLSFKNMCKLKPLLEKWLNDAE is lower in abundance fitness: 0.142 ± 0.12 for the first, -0.145 ± 0.15 for the second.

VEELEQFAKTFKQRRIKLGFTQGDVGLAMGKLYGNDFSQTTISRFEALNLSFKNMCKLKPLLEKWLNDAE and WEELEQFAKTFKQRRIKLGFTQGDVGLAMGKLYGNDFSQTTISRFEALNLSFKNMCKLKPLLEKWLNDAE are within error of each other in abundance fitness: -0.026 ± 0.058 for the first, -0.02 ± 0.051 for the second.

AEELEQFAKTFKQRRIKLGFTQGDVGLAMGKLYGNDFSQTTISRFEALNLSFKNMCKLKPLLEKWLNDAE and CEELEQFAKTFKQRRIKLGFTQGDVGLAMGKLYGNDFSQTTISRFEALNLSFKNMCKLKPLLEKWLNDAE are within error of each other in abundance fitness: -0.201 ± 0.22 for the first, -0.065 ± 0.34 for the second.

Variant EEELEQFAKTFKQRRIKLGFTQGDVGLAMGKLYGNDFSQTTISRFEALNLSFKNMCKLKPLLEKWLNDAE has an abundance fitness of -0.124 ± 0.11.
